Measured values as given in patent US20060019324A1.

T1: PknB1-279 (His-tagged catalytic kinase core of the Ser/Thr protein kinase PknB, Rv0014c, aa 1-279), P9WI81
T1 chain: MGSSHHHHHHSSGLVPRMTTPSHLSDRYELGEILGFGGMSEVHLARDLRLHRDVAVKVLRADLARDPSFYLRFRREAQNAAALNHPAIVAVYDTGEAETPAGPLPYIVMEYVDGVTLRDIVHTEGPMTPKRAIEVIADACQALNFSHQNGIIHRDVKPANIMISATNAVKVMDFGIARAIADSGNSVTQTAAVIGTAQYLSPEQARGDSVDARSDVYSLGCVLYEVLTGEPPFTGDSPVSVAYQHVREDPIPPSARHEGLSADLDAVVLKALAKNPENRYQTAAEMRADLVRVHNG

B1: PstP1-240 (His-tagged catalytic domain of the Ser/Thr protein phosphatase PstP, Rv0018c, aa 1-240) (protein)
chain: MARVTLVLRYAARSDRGLVRANNEDSVYAGARLLALADGMGGHAAGEVASQLVIAALAHLDDDEPGGDLLAKLDAAVRAGNSAIAAQVEMEPDLEGMGTTLTAILFAGNRLGLVHIGDSRGYLLRDGELTQITKDDTFVQTLVDEGRITPEEAHSHPQRSLIMRALTGHEVEPTLTMREARAGDRYLLCSDGLSDPVSDETILEALQIPEVAESAHRLIELALRGGGPDNVTVVVADVVD

Tests used:
[1] = biological target: PknB1-279 (His-tagged catalytic kinase core of the Ser/Thr protein kinase PknB, Rv0014c, aa 1-279) (Mycobacterium tuberculosis) (UniProt P9WI81); assay: cell-based or functional assay
[2] = biological target: T1, PknB1-279 (His-tagged catalytic kinase …)

Molecule | MALDI-TOF mass of PknB1-279 after treatment with PstP or alkaline phosphatase: phosphate groups removed (phosphate groups) [1] | dephosphorylation of [33P]-autophosphorylated PknB1-279 by PstP, SDS-PAGE and autoradiography, with or without MnCl2 [2] | kinase activity of PknB on MBP (thio-γATP) after preincubation with PstP [2]
PstP1-240 (His-tagged catalytic domain of the Ser/Thr protein phosphatase PstP, Rv0018c, aa 1-240) (from UniProt P9WHW5 1-240) (enzyme) | 3 |  | 
B1 |  | PstP is capable of dephosphorylating PknB | prior dephosphorylation of PknB by PstP inhibits kinase activity on MBP
